T1: TIAM2, Q8IVF5
T1 sequence (Q8IVF5 885-986, limits assumed, looked up): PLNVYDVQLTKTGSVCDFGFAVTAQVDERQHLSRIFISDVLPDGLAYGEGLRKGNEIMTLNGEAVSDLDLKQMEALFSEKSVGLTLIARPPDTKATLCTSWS

T2: APBA2_2, Q99767
T2 sequence (Q99767 654-744, limits assumed, looked up): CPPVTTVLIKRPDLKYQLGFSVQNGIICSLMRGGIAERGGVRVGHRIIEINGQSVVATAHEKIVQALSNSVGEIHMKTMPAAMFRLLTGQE

T3: MPDZ_5, O75970
T3 sequence (O75970 695-796, limits assumed, looked up): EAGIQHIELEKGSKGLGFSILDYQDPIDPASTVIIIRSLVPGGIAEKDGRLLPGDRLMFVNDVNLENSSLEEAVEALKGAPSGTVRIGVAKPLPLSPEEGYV

T4: LNX2_3, Q8N448
T4 sequence (Q8N448 463-564, limits assumed, looked up): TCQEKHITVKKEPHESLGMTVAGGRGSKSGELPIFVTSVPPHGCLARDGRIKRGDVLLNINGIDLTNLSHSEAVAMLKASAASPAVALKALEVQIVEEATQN

T5: SNTB1, Q13884
T5 sequence (Q13884 107-205, limits assumed, looked up): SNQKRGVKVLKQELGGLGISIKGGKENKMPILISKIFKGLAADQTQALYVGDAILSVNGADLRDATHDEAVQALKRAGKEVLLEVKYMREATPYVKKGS

T6: MPP6, Q9NZW5
T6 sequence (Q9NZW5 125-219, limits assumed, looked up): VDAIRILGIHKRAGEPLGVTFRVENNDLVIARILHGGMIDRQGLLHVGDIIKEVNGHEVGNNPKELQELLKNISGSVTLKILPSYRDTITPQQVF

T7: GRIP1_3, Q9Y3R0
T7 sequence (Q9Y3R0 247-346, limits assumed, looked up): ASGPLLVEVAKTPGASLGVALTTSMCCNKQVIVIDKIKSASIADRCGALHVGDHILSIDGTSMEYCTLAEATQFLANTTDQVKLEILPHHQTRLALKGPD

T8: HTRA4, P83105
T8 sequence (P83105 378-476, limits assumed, looked up): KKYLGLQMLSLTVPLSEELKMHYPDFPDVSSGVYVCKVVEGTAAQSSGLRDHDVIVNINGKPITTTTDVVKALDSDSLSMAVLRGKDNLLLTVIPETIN

T9: RAPGEF6, Q8TEU7
T9 sequence (Q8TEU7 525-625, limits assumed, looked up): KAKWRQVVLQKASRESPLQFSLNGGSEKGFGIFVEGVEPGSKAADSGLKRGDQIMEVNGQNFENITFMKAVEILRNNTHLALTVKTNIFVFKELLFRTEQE

T10: SIPA1L2, Q9P2F8
T10 sequence (Q9P2F8 945-1036, limits assumed, looked up): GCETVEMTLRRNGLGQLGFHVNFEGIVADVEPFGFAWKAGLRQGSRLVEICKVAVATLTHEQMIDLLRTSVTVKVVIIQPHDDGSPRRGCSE

T11: LRRC7, Q96NW7
T11 sequence (Q96NW7 1440-1537, limits assumed, looked up): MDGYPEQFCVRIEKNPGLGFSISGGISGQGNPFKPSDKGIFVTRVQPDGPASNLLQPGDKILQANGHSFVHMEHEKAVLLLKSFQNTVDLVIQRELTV


Experiments:
Assay in all cases: holdup assay
Parameters in all cases: key: below the threshold = too weak to quantify, mostly under pKd 3.1 to 4
Settings in all cases: plain residues with an end cap or a label only (N-terminal biotin on a linker: ado-ado)
MAST1, Q9Y2H9 = target: MAST1, Q9Y2H9
MAGI2_2, Q86UL8 = target: MAGI2_2, Q86UL8
DLG4_1, P78352 = target: DLG4_1, P78352
DLG4_3, P78352 = target: DLG4_3, P78352
TIAM2, Q8IVF5 = target: T1, TIAM2, Q8IVF5
APBA2_2, Q99767 = target: T2, APBA2_2, Q99767
LDB3, O75112 = target: LDB3, O75112
MPDZ_5, O75970 = target: T3, MPDZ_5, O75970
LNX2_3, Q8N448 = target: T4, LNX2_3, Q8N448
MAGI2_3, Q86UL8 = target: MAGI2_3, Q86UL8
SNTB1, Q13884 = target: T5, SNTB1, Q13884
PTPN3, P26045 = target: PTPN3, P26045
NHERF2_2, Q15599 = target: NHERF2_2, Q15599
GRIP2_5, Q9C0E4 = target: GRIP2_5, Q9C0E4
PICK1, Q9NRD5 = target: PICK1, Q9NRD5
MPP6, Q9NZW5 = target: T6, MPP6, Q9NZW5
FRMPD2_2, Q68DX3 = target: FRMPD2_2, Q68DX3
DLG1_1, Q12959 = target: DLG1_1, Q12959
IL16_1, Q14005 = target: IL16_1, Q14005
FRMPD2_1, Q68DX3 = target: FRMPD2_1, Q68DX3
GRIP1_3, Q9Y3R0 = target: T7, GRIP1_3, Q9Y3R0
HTRA4, P83105 = target: T8, HTRA4, P83105
RAPGEF6, Q8TEU7 = target: T9, RAPGEF6, Q8TEU7
SIPA1L2, Q9P2F8 = target: T10, SIPA1L2, Q9P2F8
HTRA1, Q92743 = target: HTRA1, Q92743
LRRC7, Q96NW7 = target: T11, LRRC7, Q96NW7
PDLIM1, O00151 = target: PDLIM1, O00151
PDLIM1, O00151, sequence (O00151 1-87): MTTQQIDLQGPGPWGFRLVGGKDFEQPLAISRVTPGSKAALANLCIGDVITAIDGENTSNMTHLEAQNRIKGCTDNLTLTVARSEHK

PICK1, Q9NRD5, sequence (Q9NRD5 17-115): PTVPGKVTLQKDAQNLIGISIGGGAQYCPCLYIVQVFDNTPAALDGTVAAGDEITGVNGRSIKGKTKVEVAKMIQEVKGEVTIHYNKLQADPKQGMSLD
DLG4_3, P78352, sequence (P78352 306-403): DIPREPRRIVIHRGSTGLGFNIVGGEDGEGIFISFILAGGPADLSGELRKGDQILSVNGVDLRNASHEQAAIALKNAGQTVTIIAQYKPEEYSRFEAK
PTPN3, P26045, sequence (P26045 505-587): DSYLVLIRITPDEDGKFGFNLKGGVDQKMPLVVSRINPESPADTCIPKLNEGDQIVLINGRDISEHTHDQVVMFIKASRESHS
IL16_1, Q14005, sequence (Q14005 210-306): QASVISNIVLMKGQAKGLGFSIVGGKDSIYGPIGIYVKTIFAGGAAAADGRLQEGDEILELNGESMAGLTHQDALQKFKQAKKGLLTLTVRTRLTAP
GRIP2_5, Q9C0E4, sequence (Q9C0E4 544-642): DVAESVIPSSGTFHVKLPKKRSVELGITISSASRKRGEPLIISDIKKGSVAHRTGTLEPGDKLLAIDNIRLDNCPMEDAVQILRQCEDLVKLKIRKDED
LDB3, O75112, sequence (O75112 1-94): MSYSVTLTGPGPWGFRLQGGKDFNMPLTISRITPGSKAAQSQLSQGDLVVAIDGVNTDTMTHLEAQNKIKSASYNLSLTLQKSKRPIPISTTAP
HTRA1, Q92743, sequence (Q92743 360-477): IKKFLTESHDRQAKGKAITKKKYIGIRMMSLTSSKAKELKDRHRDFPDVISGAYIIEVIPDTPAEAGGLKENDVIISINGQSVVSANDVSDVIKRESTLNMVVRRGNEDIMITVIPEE
NHERF2_2, Q15599, sequence (Q15599 142-238): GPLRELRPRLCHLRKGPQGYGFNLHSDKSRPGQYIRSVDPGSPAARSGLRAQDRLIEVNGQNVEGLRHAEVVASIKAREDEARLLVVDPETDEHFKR
MAGI2_2, Q86UL8, sequence (Q86UL8 410-522): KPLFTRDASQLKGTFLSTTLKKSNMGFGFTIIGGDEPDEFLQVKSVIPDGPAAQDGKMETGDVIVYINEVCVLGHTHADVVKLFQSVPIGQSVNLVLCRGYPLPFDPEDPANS
DLG4_1, P78352, sequence (P78352 62-152): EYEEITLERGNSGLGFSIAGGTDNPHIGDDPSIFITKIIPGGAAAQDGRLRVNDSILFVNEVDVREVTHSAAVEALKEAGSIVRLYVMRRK
FRMPD2_2, Q68DX3, sequence (Q68DX3 944-1038): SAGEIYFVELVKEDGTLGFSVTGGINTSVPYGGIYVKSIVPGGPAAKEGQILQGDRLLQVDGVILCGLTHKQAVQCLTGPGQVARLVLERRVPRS
MAST1, Q9Y2H9, sequence (Q9Y2H9 962-1065): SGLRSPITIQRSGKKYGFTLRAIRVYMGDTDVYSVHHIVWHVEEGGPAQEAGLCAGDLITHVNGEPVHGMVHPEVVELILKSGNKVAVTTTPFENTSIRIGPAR
MAGI2_3, Q86UL8, sequence (Q86UL8 600-682): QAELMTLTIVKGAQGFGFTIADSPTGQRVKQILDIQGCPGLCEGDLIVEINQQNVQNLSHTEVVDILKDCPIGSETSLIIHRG
FRMPD2_1, Q68DX3, sequence (Q68DX3 770-861): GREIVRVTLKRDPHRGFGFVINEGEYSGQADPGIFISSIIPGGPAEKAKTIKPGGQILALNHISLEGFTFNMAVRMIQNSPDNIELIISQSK

Binder	pKd (MAST1, Q9Y2H9)	pKd (MAGI2_2, Q86UL8)	pKd (DLG4_1, P78352)	pKd (DLG4_3, P78352)	pKd (TIAM2, Q8IVF5)	pKd (APBA2_2, Q99767)	pKd (LDB3, O75112)	pKd (MPDZ_5, O75970)	pKd (LNX2_3, Q8N448)	pKd (MAGI2_3, Q86UL8)	pKd (SNTB1, Q13884)	pKd (PTPN3, P26045)	pKd (NHERF2_2, Q15599)	pKd (GRIP2_5, Q9C0E4)	pKd (PICK1, Q9NRD5)	pKd (MPP6, Q9NZW5)	pKd (FRMPD2_2, Q68DX3)	pKd (DLG1_1, Q12959)	pKd (IL16_1, Q14005)	pKd (FRMPD2_1, Q68DX3)	further results
PEEGKKQSQC [GAGE12J, A6NER3]	3.6	3.67	below the threshold	3.75	3.87	below the threshold	below the threshold	below the threshold	below the threshold	3.58	below the threshold	3.91	3.48	below the threshold	below the threshold	below the threshold	below the threshold	below the threshold	below the threshold	below the threshold	pKd (GRIP1_3, Q9Y3R0): below the threshold; pKd (HTRA4, P83105): below the threshold; pKd (RAPGEF6, Q8TEU7): below the threshold; pKd (SIPA1L2, Q9P2F8): below the threshold; pKd (HTRA1, Q92743): below the threshold; pKd (LRRC7, Q96NW7): below the threshold; pKd (PDLIM1, O00151): below the threshold
SSGSTSSSRI [ADGRG1, Q9Y653]	4	below the threshold	below the threshold	below the threshold	3.82	below the threshold	below the threshold	below the threshold	below the threshold	below the threshold	below the threshold	3.86	3.71	below the threshold	below the threshold	below the threshold	below the threshold	below the threshold	below the threshold	below the threshold	pKd (GRIP1_3, Q9Y3R0): below the threshold; pKd (HTRA4, P83105): below the threshold; pKd (RAPGEF6, Q8TEU7): 3.7; pKd (SIPA1L2, Q9P2F8): below the threshold; pKd (HTRA1, Q92743): below the threshold; pKd (LRRC7, Q96NW7): below the threshold; pKd (PDLIM1, O00151): below the threshold
EGGKKRESEA [APPL1, Q9UKG1]	4.12	below the threshold	below the threshold	below the threshold	4.02	below the threshold	below the threshold	below the threshold	below the threshold	below the threshold	below the threshold	4.14	below the threshold	below the threshold	below the threshold	below the threshold	below the threshold	below the threshold	below the threshold	below the threshold	pKd (GRIP1_3, Q9Y3R0): below the threshold; pKd (HTRA4, P83105): below the threshold; pKd (RAPGEF6, Q8TEU7): 3.49; pKd (SIPA1L2, Q9P2F8): below the threshold; pKd (HTRA1, Q92743): below the threshold; pKd (LRRC7, Q96NW7): below the threshold; pKd (PDLIM1, O00151): below the threshold
QLAEIAESGL [ITK, Q08881]	4.54	below the threshold	below the threshold	3.62	below the threshold	3.48	below the threshold	3.6	below the threshold	3.58	3.67	4.89	4.27	3.65	below the threshold	below the threshold	3.52	below the threshold	3.48	below the threshold	pKd (GRIP1_3, Q9Y3R0): below the threshold; pKd (HTRA4, P83105): below the threshold; pKd (RAPGEF6, Q8TEU7): below the threshold; pKd (SIPA1L2, Q9P2F8): 3.67; pKd (HTRA1, Q92743): below the threshold; pKd (LRRC7, Q96NW7): below the threshold; pKd (PDLIM1, O00151): 3.56
PKLMGVETVV [DUSP10, Q9Y6W6]	4.58	4.73	5.16	4.01	below the threshold	below the threshold	below the threshold	3.58	below the threshold	4.17	5.17	4.66	below the threshold	below the threshold	below the threshold	3.82	4.1	5.06	4.38	below the threshold	pKd (GRIP1_3, Q9Y3R0): below the threshold; pKd (HTRA4, P83105): 3.74; pKd (RAPGEF6, Q8TEU7): below the threshold; pKd (SIPA1L2, Q9P2F8): below the threshold; pKd (HTRA1, Q92743): 4.6; pKd (LRRC7, Q96NW7): 3.83; pKd (PDLIM1, O00151): below the threshold

Reference: PMC9482650, “Quantitative fragmentomics allow affinity mapping of interactomes” (Nature Communications, 2022)
